Measurements: publication PMC9246348

Assays:
[1] = substrate: Nc1ccn([C@@H]2O[C@H](CO)[C@@H](O)[C@H]2O)c(=O)n1; assay: ADP-Glo kinase assay; type: biochemical, Homo sapiens; conditions: 100 µM ATP, 50 mM Tris pH 7.5, 5 mM MgCl2, 2 mM DTT, room temperature
[2] = substrate: O=c1ccn([C@@H]2O[C@H](CO)[C@@H](O)[C@H]2O)c(=O)[nH]1; assay: ADP-Glo kinase assay; type: biochemical, Homo sapiens; conditions: 100 µM ATP, 50 mM Tris pH 7.5, 5 mM MgCl2, 2 mM DTT, room temperature

B1: UCK2 (Homo sapiens) (protein)
chain: MAGDSEQTLQNHQQPNGGEPFLIGVSGGTASGKSSVCAKIVQLLGQNEVDYRQKQVVILSQDSFYRVLTSEQKAKALKGQFNFDHPDAFDNELILKTLKEITEGKTVQIPVYDFVSHSRKEETVTVYPADVVLFEGILAFYSQEVRDLFQMKLFVDTDADTRLSRRVLRDISERGRDLEQILSQYITFVKPAFEEFCLPTKKYADVIIPRGADNLVAINLIVQHIQDILNGGPSKRQTNGCLNGYTPSRKRQASESSSRPH
Question: Which Km [1] does the source give for B1 here?
Answer: The Km was 25.07 µM.

Question: What about the Vmax [1] of the same protein?
Answer: The Vmax was 1.09 µmol/min/mg.

Question: And the kcat/Km [1]?
Answer: Its kcat/Km is 35000 M⁻¹ s⁻¹.

Question: And the Km [2]?
Answer: The Km was 207.3 µM.

Question: And the Vmax [2]?
Answer: The Vmax was 3.98 µmol/min/mg.

Question: What about the kcat/Km [2] of the same protein?
Answer: The kcat/Km was 15000 M⁻¹ s⁻¹.
